Laboratory results: patent publication US20260125460A1 (Eli Lilly, published 2026)

Key:
human IL-34 [1] = target: T1, human IL-34 (human, UniProt Q6ZMJ4 21-242); assay: cell-based or functional assay
T1 sequence: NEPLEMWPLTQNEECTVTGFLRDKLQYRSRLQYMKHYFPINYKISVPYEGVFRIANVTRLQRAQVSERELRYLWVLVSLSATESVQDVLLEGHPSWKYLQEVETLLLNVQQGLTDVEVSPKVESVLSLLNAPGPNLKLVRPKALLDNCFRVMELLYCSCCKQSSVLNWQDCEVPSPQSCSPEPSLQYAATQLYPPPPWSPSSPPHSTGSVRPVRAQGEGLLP

human IL-34 [2] = target: T1, human IL-34; assay: competition ELISA; displacement of biotinylated human IL-34 (3.7 nM) from plate-bound hCSF1R_Fc
Protocol: (§1) CSF1R extracellular domain proteins (hCSF1R_Fc commercially available from R&D Cat #329-MR, cynomolgus CSF1R ECD-Fc (AAA is a linker between CSF1R extracellular domain and Fc) (SEQ ID NO: 34)) can be bound to an ELISA plate at concentrations of 30 nM in order to capture soluble biotinylated IL-34 and allowed to bind for one hour. After washing and blocking plate, biotinylated IL-34 may be added, then detected via streptavidin conjugated peroxidase. Concentrations of labeled IL-34 near the 80% binding level (EC₈₀) (3.7 nM) may be used in conjunction with a range of antibody concentrations (0-100 nM) to determine concentration of antibody required to displace IL-34 from CSF1R. After 1 hr incubation, IL-34 bound to CSF1R is detected via streptavidin conjugated peroxidase. The antibodies are assayed (n=2) and the average and standard deviation at each concentration are calculated. The potency of an antibody to displace IL-34 from CSF1R is reported as IC₅₀ (nM) with the calculated confidence interval (CI) in Table 4 and Table 5.

cynomolgus monkey IL-34 [3] = target: T2, cynomolgus monkey IL-34 (cynomolgus monkey, UniProt G7Q1L3 21-242); assay: competition ELISA; displacement of biotinylated cyno IL-34 from plate-bound cynomolgus CSF1R ECD-Fc
T2 construct: Biotinylated in the displacement ELISA; also called cyno IL-34
T2 sequence: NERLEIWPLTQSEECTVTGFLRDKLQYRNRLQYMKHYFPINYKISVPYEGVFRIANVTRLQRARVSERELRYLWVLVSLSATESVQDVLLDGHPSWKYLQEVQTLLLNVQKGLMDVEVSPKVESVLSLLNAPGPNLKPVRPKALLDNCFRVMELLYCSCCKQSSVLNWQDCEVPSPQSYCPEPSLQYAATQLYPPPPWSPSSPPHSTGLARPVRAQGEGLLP
Protocol: as §1

human IL-34 [4] = target: T1, human IL-34; assay: SPR, BIAcore 8K, 37 C; antibody captured on Protein A chip, IL-34 in flow; 1:1 fit; average of at least three experiments
Protocol: (§2) Binding affinity of anti-IL-34 monoclonal antibodies of the present disclosure to human and/or cynomolgus monkey (cyno) IL-34 may be determined by methods known in the art. […] For each cycle, 200 μL IL-34 is flowed over the immobilized antibody at 100 μL/minute, and then dissociated for 20 minutes. The chip surface is regenerated with 50 μL of glycine buffer at pH 1.5 at a flow rate of 100 μL/minute. The data are fit to a 1:1 Langmiur binding mode to derive kon, koff and to calculate KD.

cynomolgus monkey IL-34 [5] = target: T2, cynomolgus monkey IL-34; assay: as above
Protocol: as §2

B1: Antibody 1 (antibody, human IgG4 S228P, kappa, F234A L235A, V domains shown)
VH: EVQLLESGGGLVQPGGSLRLSCAASGFAFSNYAMSWVRQAPGKGLEWVSAISASGGKTYYADSVKGRFTISRDNSKNTLYLQMNSLRAEDTAVYYCAKRGYLWHAFDHWGRGTLVTVSS
VL: EIVLTQSPGTLSLSPGERATLSCRASQSVYSSYLAWYQQKPGQAPRLLIYGASSRATGIPDRFSGSGSGTDFTLTISRLEPEDFAVYYCQVVGSSPPFTFGGGTKVEIKR
notes: Human anti-human IL-34 antibody; IgG4 PAA hinge/Fc without the C-terminal lysine; also called Exemplified Antibody 1; exemplified antibody 1
- IC50 (ug/ml), neutralization of human IL-34 (100 ng/ml) induced luciferase reporter activity in hCSF1R expressing 293 SRE cells (human IL-34 [1]): 0.0533 µg/mL
- IC50 (human IL-34 [2]): 0.0657 nM
- IC50 (cynomolgus monkey IL-34 [3]): 1.41 nM
- Kd (human IL-34 [4]): 0.0338 nM
- koff (human IL-34 [4]): 0.00019 s⁻¹
- kon (human IL-34 [4]): 5.6e+06 M⁻¹ s⁻¹
- Kd (cynomolgus monkey IL-34 [5]): 0.039 nM
- koff (cynomolgus monkey IL-34 [5]): 0.00031 s⁻¹
- kon (cynomolgus monkey IL-34 [5]): 8.1e+06 M⁻¹ s⁻¹
